From the RNAGym collection of RNA variant scans (doi:10.1093/nar/gkz1192) come the findings set out here.

First the molecules themselves.
B1: CPEB3 Ribozyme (parent)
chain: UAACAGGGGGCCACAGCAGAAGCGUUCACGUCGCAGCCCCUGUCAGAUUCUGGUGAAUCUGCGAAUUCUGCUGUAUAUCUC

Variants of B1 are the subject of the data set. In words: self-cleavage, relative activity (ratio to wild type); higher = more cleavage; in vitro, sequencing. An outline of the steps: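 Barcoded CPEB3 ribozyme mutants, produced by rounds of error-prone PCR, self-cleaved while being transcribed with T7 RNA polymerase for 5 hours at 37°C and during a subsequent 15 min DNase I step before EDTA was added. Sequencing of template-switched cDNA on Illumina gave cleaved and total reads, and DNA sequencing assigned barcodes to variants. Each variant's relative activity is its cleaved/total read fraction divided by the unmutated ribozyme's fraction, averaged across three batches. A variant needed a minimum of 5 reads.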
UAACAGGGGGCCACAGCAGAAGCGUUCACGUCGCAGCCCCCGUUAGAUUCUGGUGAAUCUGCGAAUUCUGCUGUAUAUCUC: the self-cleavage was determined as 0.53.

With UAACAGGGGGCCACAGCAGAAGCGUUCACGUCGCAGCCCCCGUAAGAUUCUGGUGAAUCUGCGAAUUCUGCUGUAUAUCUC, the self-cleavage is 0.39.

With UAACAGGGGGCCACAGCAGAAGCGUUCACGUCGCAGCCCCCGUCAGAUUAUGGUGAAUCUGCGAAUUCUGCUGUAUAUCUC, the self-cleavage turned out to be 0.94.

For the variant UAACAGGGGGCCACAGCAGAAGCGUUCACGUCGCAGCCCCCGUCAGAUUUUGGUGAAUCUGCGAAUUCUGCUGUAUAUCUC, the self-cleavage was determined as 1.08.

Take UAACAGGGGGCCACAGCAGAAGCGUUCACGUCGCAGCCCCCGUCAGAUUGUGGUGAAUCUGCGAAUUCUGCUGUAUAUCUC: the self-cleavage was determined as 0.96.

As for UAACAGGGGGCCACAGCAGAAGCGUUCACGUCGCAGCCCCCGUCCGAUUCUGGUGAAUCUGCGAAUUCUGCUGUAUAUCUC, the self-cleavage stood at 0.53.

With UAACAGGGGGCCACAGCAGAAGCGUUCACGUCGCAGCCCCCGUCGGAUUCUGGUGAAUCUGCGAAUUCUGCUGUAUAUCUC, the self-cleavage was 0.92.

Regarding UAACAGGGGGCCACAGCAGAAGCGUUCACGUCGCAGCCCCCGUCUGAUUCUGGUGAAUCUGCGAAUUCUGCUGUAUAUCUC, the self-cleavage came out at 0.68.

Regarding UAACAGGGGGCCACAGCAGAAGCGUUCACGUCGCAGCCCCCGUCAGAUUCUGGUGAAUCUGCGAAUUCUGCUGUAUAUCUC, the self-cleavage is 1.09.

UAACAGGGGGCCACAGCAGAAGCGUUCACGUCGCAGCCCCCGUCAGGUUCUGGUGAAUCUGCGAAUUCUGCUGUAUAUCUC: the self-cleavage was 1.

UAACAGGGGGCCACAGCAGAAGCGUUCACGUCGCAGCCCCCGUCAGUUUCUGGUGAAUCUGCGAAUUCUGCUGUAUAUCUC: the self-cleavage worked out at 0.61.

For UAACAGGGGGCCACAGCAGAAGCGUUCACGUCGCAGCCCCCGUCAGCUUCUGGUGAAUCUGCGAAUUCUGCUGUAUAUCUC, the self-cleavage worked out at 0.46.

As for UAACAGGGGGCCACAGCAGAAGCGUUCACGUCGCAGCCCCCGUCAGAUUCUGGUGAAUCUGCGCAUUCUGCUGUAUAUCUC, the self-cleavage worked out at 0.46.

For the variant UAACAGGGGGCCACAGCAGAAGCGUUCACGUCGCAGCCCCCGUCAGAUUCUGGUGAAUCUGCGUAUUCUGCUGUAUAUCUC, the self-cleavage turned out to be 0.4.

For UAACAGGGGGCCACAGCAGAAGCGUUCACGUCGCAGCCCCCGUCAGAUUCUGGUGAAUCUGCGGAUUCUGCUGUAUAUCUC, the self-cleavage worked out at 0.77.

As to UAACAGGGGGCCACAGCAGAAGCGUUCACGUCGCAGCCCCAGUCAGAUUCUGGUGAAUCUGCGAAUUCUGCUGUACAUCUC, the self-cleavage was found to be 0.27.

Consider UAACAGGGGGCCACAGCAGAAGCGUUCACGUCGCAGCCCCAGUCAGAUUCUGGUGAAUCUGCGAAUUCUGCUGUAAAUCUC, for which the self-cleavage was determined as 0.16.

On to UAACAGGGGGCCACAGCAGAAGCGUUCACGUCGCAGCCCCAGUCAGAUUCUGGUGAAUCUGCGAAUUCUGCUGUAGAUCUC, for which the self-cleavage was found to be 0.22.

For UAACAGGGGGCCACAGCAGAAGCGUUCACGUCGCAGCCCCAGUCAGAUUCUGGUGAAUCUGCGAAUACUGCUGUAUAUCUC, the self-cleavage was found to be 0.36.

As for UAACAGGGGGCCACAGCAGAAGCGUUCACGUCGCAGCCCCAGUCAGAUUCUGGUGAAUCUGCGAAUGCUGCUGUAUAUCUC, the self-cleavage was found to be 0.18.

As for UAACAGGGGGCCACAGCAGAAGCGUUCACGUCGCAGCCCCAGUCAGAUUCUGGUGAAUCUGCGAAUCCUGCUGUAUAUCUC, the self-cleavage is 0.21.

On to UAACAGGGGGCCACAGCAGAAGCGUUCACGUCGCAGCCCCAGUCAGAUUCUGGUGAAUCUGCGAAUUCUGCUGUAUAUCAC, for which the self-cleavage came to 0.28.

Consider UAACAGGGGGCCACAGCAGAAGCGUUCACGUCGCAGCCCCAGUCAGAUUCUGGUGAAUCUGCGAAUUCUGCUGUAUAUCCC, for which the self-cleavage is 0.32.

Take UAACAGGGGGCCACAGCAGAAGCGUUCACGUCGCAGCCCCAGUCAGAUUCUGGUGAAUCUGCGAAUUCUGCUGUAUAUCGC: the self-cleavage came to 0.41.

For the variant UAACAGGGGGCCACAGCAGAAGCGUUCACGUCGCAGCCCCCGUCAGAUUCUGGUGAAUCUGCGAAUUCUGCUGUUUAUCUC, the self-cleavage was 1.18.

On to UAACAGGGGGCCACAGCAGAAGCGUUCACGUCGCAGCCCCCGUCAGAUUCUGGUGAAUCUGCGAAUUCUGCUGUGUAUCUC, for which the self-cleavage is 1.09.

UAACAGGGGGCCACAGCAGAAGCGUUCACGUCGCAGCCCCCGUCAGAUUCUGGUGAAUCUGCGAAUUCUGCUGUCUAUCUC: the self-cleavage turned out to be 1.15.

UAACAGGGGGCCACAGCAGAAGCGUUCACGUCGCAGCCCCAGUCAGAUUCUGGUGAAUCUGCGAAUUCUGCUGUAUACCUC: the self-cleavage is 0.26.

For the variant UAACAGGGGGCCACAGCAGAAGCGUUCACGUCGCAGCCCCAGUCAGAUUCUGGUGAAUCUGCGAAUUCUGCUGUAUAACUC, the self-cleavage turned out to be 0.25.

For UAACAGGGGGCCACAGCAGAAGCGUUCACGUCGCAGCCCCAGUCAGAUUCUGGUGAAUCUGCGAAUUCUGCUGUAUAGCUC, the self-cleavage is 0.13.

Regarding UAACAGGGGGCCACAGCAGAAGCGUUCACGUCGCAGCCCCAGUCAGAUUCUGGUGAAUCUGCGAACUCUGCUGUAUAUCUC, the self-cleavage was 0.23.

UAACAGGGGGCCACAGCAGAAGCGUUCACGUCGCAGCCCCAGUCAGAUUCUGGUGAAUCUGCGAAGUCUGCUGUAUAUCUC: the self-cleavage was 0.18.

Turning to UAACAGGGGGCCACAGCAGAAGCGUUCACGUCGCAGCCCCAGUCAGAUUCUGGUGAAUCUGCGAAAUCUGCUGUAUAUCUC, the self-cleavage was determined as 0.27.

With UAACAGGGGGCCACAGCAGAAGCGUUCACGUCGCAGCCCCAGUCAGAUUCUGGUGAAUCAGCGAAUUCUGCUGUAUAUCUC, the self-cleavage was found to be 0.25.

Regarding UAACAGGGGGCCACAGCAGAAGCGUUCACGUCGCAGCCCCAGUCAGAUUCUGGUGAAUCCGCGAAUUCUGCUGUAUAUCUC, the self-cleavage is 0.26.

Regarding UAACAGGGGGCCACAGCAGAAGCGUUCACGUCGCAGCCCCAGUCAGAUUCUGGUGAAUCGGCGAAUUCUGCUGUAUAUCUC, the self-cleavage was 0.23.

In the case of UAACAGGGGGCCACAGCAGAAGCGUUCACGUCGCAGCCCCAGUCAGAUUCCGGUGAAUCUGCGAAUUCUGCUGUAUAUCUC, the self-cleavage is 0.31.

Take UAACAGGGGGCCACAGCAGAAGCGUUCACGUCGCAGCCCCAGUCAGAUUCGGGUGAAUCUGCGAAUUCUGCUGUAUAUCUC: the self-cleavage was 0.42.

Regarding UAACAGGGGGCCACAGCAGAAGCGUUCACGUCGCAGCCCCAGUCAGAUUCAGGUGAAUCUGCGAAUUCUGCUGUAUAUCUC, the self-cleavage is 0.36.

Turning to UAACAGGGGGCCACAGCAGAAGCGUUCACGUCGCAGCCCCCGUCAGAUUCUGGUGGAUCUGCGAAUUCUGCUGUAUAUCUC, the self-cleavage is 0.94.

For the variant UAACAGGGGGCCACAGCAGAAGCGUUCACGUCGCAGCCCCCGUCAGAUUCUGGUGUAUCUGCGAAUUCUGCUGUAUAUCUC, the self-cleavage came to 0.75.

With UAACAGGGGGCCACAGCAGAAGCGUUCACGUCGCAGCCCCCGUCAGAUUCUGGUGCAUCUGCGAAUUCUGCUGUAUAUCUC, the self-cleavage is 0.64.

With UAACAGGGGGCCACAGCAGAAGCGUUCACGUCGCAGCCCCCGUCAGAUUCUGGUGAAUCUGCGAUUUCUGCUGUAUAUCUC, the self-cleavage was found to be 0.48.

On to UAACAGGGGGCCACAGCAGAAGCGUUCACGUCGCAGCCCCCGUCAGAUUCUGGUGAAUCUGCGAGUUCUGCUGUAUAUCUC, for which the self-cleavage was 0.53.

On to UAACAGGGGGCCACAGCAGAAGCGUUCACGUCGCAGCCCCCGUCAGAUUCUGGUGAAUCUGCGACUUCUGCUGUAUAUCUC, for which the self-cleavage amounted to 0.4.

In the case of UAACAGGGGGCCACAGCAGAAGCGUUCACGUCGCAGCCCCAGUCAGAUCCUGGUGAAUCUGCGAAUUCUGCUGUAUAUCUC, the self-cleavage was 0.23.

As to UAACAGGGGGCCACAGCAGAAGCGUUCACGUCGCAGCCCCAGUCAGAUACUGGUGAAUCUGCGAAUUCUGCUGUAUAUCUC, the self-cleavage amounted to 0.23.

Turning to UAACAGGGGGCCACAGCAGAAGCGUUCACGUCGCAGCCCCAGUCAGAUUCUGGUGAAUCUGCGAAUUCGGCUGUAUAUCUC, the self-cleavage worked out at 0.33.

On to UAACAGGGGGCCACAGCAGAAGCGUUCACGUCGCAGCCCCAGUCAGAUUCUGGUGAAUCUGCGAAUUCCGCUGUAUAUCUC, for which the self-cleavage is 0.24.

With UAACAGGGGGCCACAGCAGAAGCGUUCACGUCGCAGCCCCAGUCAGAUUCUGGUGAAUCUGCGAAUUCAGCUGUAUAUCUC, the self-cleavage is 0.14.

In the case of UAACAGGGGGCCACAGCAGAAGCGUUCACGUCGCAGCCCCCGUCAGAUUCUGGUGAAUCUGCGAAUUCUGCUGUAUCUCUC, the self-cleavage worked out at 1.09.

As for UAACAGGGGGCCACAGCAGAAGCGUUCACGUCGCAGCCCCCGUCAGAUUCUGGUGAAUCUGCGAAUUCUGCUGUAUUUCUC, the self-cleavage was 1.17.

With UAACAGGGGGCCACAGCAGAAGCGUUCACGUCGCAGCCCCCGUCAGAUUCUGGUGAAUCUGCGAAUUCUGCUGUAUGUCUC, the self-cleavage stood at 1.17.

Consider UAACAGGGGGCCACAGCAGAAGCGUUCACGUCGCAGCCCCAGUCAGAUUCUGGUGAAUCUGCGAAUUCUGCUGAAUAUCUC, for which the self-cleavage worked out at 0.29.

As for UAACAGGGGGCCACAGCAGAAGCGUUCACGUCGCAGCCCCAGUCAGAUUCUGGUGAAUCUGCGAAUUCUGCUGCAUAUCUC, the self-cleavage was 0.4.

As to UAACAGGGGGCCACAGCAGAAGCGUUCACGUCGCAGCCCCAGUCAGAUUCUGGUGAAGCUGCGAAUUCUGCUGUAUAUCUC, the self-cleavage stood at 0.23.

As for UAACAGGGGGCCACAGCAGAAGCGUUCACGUCGCAGCCCCAGUCAGAUUCUGGUGAAACUGCGAAUUCUGCUGUAUAUCUC, the self-cleavage was found to be 0.22.

Turning to UAACAGGGGGCCACAGCAGAAGCGUUCACGUCGCAGCCCCAGUCAGAUUCUGGUGAACCUGCGAAUUCUGCUGUAUAUCUC, the self-cleavage was determined as 0.23.

Consider UAACAGGGGGCCACAGCAGAAGCGUUCACGUCGCAGCCCCCGUCAGAUUCUGGUGAUUCUGCGAAUUCUGCUGUAUAUCUC, for which the self-cleavage was 0.78.

Consider UAACAGGGGGCCACAGCAGAAGCGUUCACGUCGCAGCCCCCGUCAGAUUCUGGUGACUCUGCGAAUUCUGCUGUAUAUCUC, for which the self-cleavage was found to be 0.58.

As for UAACAGGGGGCCACAGCAGAAGCGUUCACGUCGCAGCCCCCGUCAGAUUCUGGUGAGUCUGCGAAUUCUGCUGUAUAUCUC, the self-cleavage was determined as 1.

Regarding UAACAGGGGGCCACAGCAGAAGCGUUCACGUCGCAGCCCCAGUCAGAUUCUGGUGAAUCUGCGAAUUCUGCCGUAUAUCUC, the self-cleavage turned out to be 0.28.

UAACAGGGGGCCACAGCAGAAGCGUUCACGUCGCAGCCCCAGUCAGAUUCUGGUGAAUCUGCGAAUUCUGCAGUAUAUCUC: the self-cleavage worked out at 0.23.

UAACAGGGGGCCACAGCAGAAGCGUUCACGUCGCAGCCCCAGUCAGAUUCUGGUGAAUCUGCGAAUUCUGCGGUAUAUCUC: the self-cleavage was found to be 0.21.

As to UAACAGGGGGCCACAGCAGAAGCGUUCACGUCGCAGCCCCAGUCAGAUUCUGGCGAAUCUGCGAAUUCUGCUGUAUAUCUC, the self-cleavage came to 0.29.

As to UAACAGGGGGCCACAGCAGAAGCGUUCACGUCGCAGCCCCAGUCAGAUUCUGGAGAAUCUGCGAAUUCUGCUGUAUAUCUC, the self-cleavage amounted to 0.27.

UAACAGGGGGCCACAGCAGAAGCGUUCACGUCGCAGCCCCAGUCAGAUUCUGGGGAAUCUGCGAAUUCUGCUGUAUAUCUC: the self-cleavage was 0.22.

On to UAACAGGGGGCCACAGCAGAAGCGUUCACGUCGCAGCCCCAGUCAGAGUCUGGUGAAUCUGCGAAUUCUGCUGUAUAUCUC, for which the self-cleavage was 0.37.
